{
  "source": "patent US20240425575A1",
  "binders": {"B1": {"name": "B2-E2 (VHH)", "VHH": "EVQLVESGGGLVQPGESLRLSCVASGFPSGFTFSDYQMYWYRQAPGKERELVAIISNDGLRKTYADSVKGRFTISRDNAKNTMFLQMNSLKPEDTAVYVCNVRRANRDDWGQGTQVTVSS"}, "B2": {"name": "B2-F10 (VHH)", "VHH": "QVQLVESGGGLVQAGGSLRLSCGASGSAVSITLMAWYRQAPGKQRELVAGISNIGDTNYVDSVKDRFTISRINAKNAMYLQMNSLKPEDTAVYYCFAQDWGGHHYWGQGTQVTVSS"}, "B3": {"name": "B3-C11 (VHH)", "VHH": "EVQLVESGGGLVQAGGSLRLSCFVSGSTFSASLMGWYRQAPGKERELVAGISNIGNTVYADSAKGRFTISRDGAKNTVHLQMNALKPEDTAVYYCYATVPRAAWGQGTQVTVSS"}, "B4": {"name": "B2-A6 (VHH)", "VHH": "B3 VHH with E1Q, V2L"}, "B5": {"name": "B4-D3 (VHH)", "VHH": "QLQLVESGGGLVQPGGSLRLSCVASGASGISFSNRGMAWYRQAPGKQRELVAAIDSAGSPAYAGSVKGRFTISRDNAKNTVFLQMNSLKPEDTAVYYCNQPRFNLWGLGTQVTVSS"}, "B6": {"name": "B4-C11 (VHH)", "VHH": "QVQLVESGGGLVQAGGSLRLSCAASGSTFSNVVAGWYRQAPGKQRELVAGISNIGDTRYADSVKGRFTISRDNAKKAVYLQMNSLKPEDTAVYYCYAKYWARDYWGQGTQVTVSS"}, "B7": {"name": "B3-H7 (VHH)", "VHH": "B6 VHH with Q1E, L4V, F29A, S30I, V32S, A77T, P87S"}, "B8": {"name": "B1-H9 (VHH)", "VHH": "B6 VHH with Q1E, G10D, N31S, V32T, V33I, A77T"}, "B9": {"name": "B1-G3 (VHH)", "VHH": "EVQVVESGGGLVQPGGSLRLSCVASMPSGISFSNRGMAWYRQAPGKQRELVAAIDSAGSTRYQDSVKGRFTISRDNAKNTVFLQMNSLKPEDTAVYYCNQPAFKAWGQGTQVTVSS"}, "B10": {"name": "B1-G8 (VHH)", "VHH": "QVQLVESGGGLVQTGDSLRLSCVAPGISFSNRGMAWYRQAPGKQRELVAAIDSAGSQRYAGSVKDRFTISRDNAKNTVFLQMNSLKPEDTAVYYCNQPRFNLWGQGTQVTVSS"}},
  "target": "BSA (UniProt P02769)",
  "sequence (P02769 25-607 limits assumed)": "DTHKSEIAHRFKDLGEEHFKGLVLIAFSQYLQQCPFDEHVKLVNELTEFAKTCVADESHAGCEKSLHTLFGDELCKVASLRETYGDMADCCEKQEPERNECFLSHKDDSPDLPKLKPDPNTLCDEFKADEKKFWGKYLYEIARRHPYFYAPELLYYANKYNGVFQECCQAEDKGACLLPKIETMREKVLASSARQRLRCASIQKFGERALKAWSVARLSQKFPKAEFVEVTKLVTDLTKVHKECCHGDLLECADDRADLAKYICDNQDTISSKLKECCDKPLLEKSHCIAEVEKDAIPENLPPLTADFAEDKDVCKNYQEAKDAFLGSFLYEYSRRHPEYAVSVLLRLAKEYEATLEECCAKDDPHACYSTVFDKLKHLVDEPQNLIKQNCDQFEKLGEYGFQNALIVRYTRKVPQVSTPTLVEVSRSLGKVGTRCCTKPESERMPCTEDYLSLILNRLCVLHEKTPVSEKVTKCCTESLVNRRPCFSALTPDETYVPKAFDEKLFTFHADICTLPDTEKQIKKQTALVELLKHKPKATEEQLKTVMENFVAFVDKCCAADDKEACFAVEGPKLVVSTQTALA",
  "test": "ELISA, BSA coated (control), E. coli supernatant, anti-VHH-HRP",
  "note": "Numbering of substitutions follows the chain as printed.",
  "data": [
    {"binder": "B1", "values": [
      {"measurement": "OD Value Obtained after Binding to BSA", "value": 0.07, "unit": "OD 450 nm"}
    ]},
    {"binder": "B2", "values": [
      {"measurement": "OD Value Obtained after Binding to BSA", "value": 0.063, "unit": "OD 450 nm"}
    ]},
    {"binder": "B3", "values": [
      {"measurement": "OD Value Obtained after Binding to BSA", "value": 0.071, "unit": "OD 450 nm"}
    ]},
    {"binder": "B4", "values": [
      {"measurement": "OD Value Obtained after Binding to BSA", "value": 0.049, "unit": "OD 450 nm"}
    ]},
    {"binder": "B5", "values": [
      {"measurement": "OD Value Obtained after Binding to BSA", "value": 0.059, "unit": "OD 450 nm"}
    ]},
    {"binder": "B6", "values": [
      {"measurement": "OD Value Obtained after Binding to BSA", "value": 0.071, "unit": "OD 450 nm"}
    ]},
    {"binder": "B7", "values": [
      {"measurement": "OD Value Obtained after Binding to BSA", "value": 0.056, "unit": "OD 450 nm"}
    ]},
    {"binder": "B8", "values": [
      {"measurement": "OD Value Obtained after Binding to BSA", "value": 0.058, "unit": "OD 450 nm"}
    ]},
    {"binder": "B9", "values": [
      {"measurement": "OD Value Obtained after Binding to BSA", "value": 0.067, "unit": "OD 450 nm"}
    ]},
    {"binder": "B10", "values": [
      {"measurement": "OD Value Obtained after Binding to BSA", "value": 0.065, "unit": "OD 450 nm"}
    ]}
  ]
}
